Reference: paper PMC9986870

Molecular target: Alexa Fluor 488 labeled α-synuclein (UniProt P37840)
Assay: MST; apparent; constant 50 nM αS-AF488, dilution series of 16 HSA concentrations (50 μM to 6.25 nM); 10 mM Na2HPO4, 1.8 mM KH2PO4, 137 mM NaCl, 2.7 mM KCl, pH 7.4; Monolith NT.115, LED power 20%, MST power 20, 40 and 80%, data normalised and averaged

human serum albumin (from UniProt P02768 25-609) (natural protein)
Kd: 300 nM
